According to paper PMC5123381:

Target: T1, CD11a (human (endogenous in NK92-CD16)) (UniProt P20701)
T1 sequence: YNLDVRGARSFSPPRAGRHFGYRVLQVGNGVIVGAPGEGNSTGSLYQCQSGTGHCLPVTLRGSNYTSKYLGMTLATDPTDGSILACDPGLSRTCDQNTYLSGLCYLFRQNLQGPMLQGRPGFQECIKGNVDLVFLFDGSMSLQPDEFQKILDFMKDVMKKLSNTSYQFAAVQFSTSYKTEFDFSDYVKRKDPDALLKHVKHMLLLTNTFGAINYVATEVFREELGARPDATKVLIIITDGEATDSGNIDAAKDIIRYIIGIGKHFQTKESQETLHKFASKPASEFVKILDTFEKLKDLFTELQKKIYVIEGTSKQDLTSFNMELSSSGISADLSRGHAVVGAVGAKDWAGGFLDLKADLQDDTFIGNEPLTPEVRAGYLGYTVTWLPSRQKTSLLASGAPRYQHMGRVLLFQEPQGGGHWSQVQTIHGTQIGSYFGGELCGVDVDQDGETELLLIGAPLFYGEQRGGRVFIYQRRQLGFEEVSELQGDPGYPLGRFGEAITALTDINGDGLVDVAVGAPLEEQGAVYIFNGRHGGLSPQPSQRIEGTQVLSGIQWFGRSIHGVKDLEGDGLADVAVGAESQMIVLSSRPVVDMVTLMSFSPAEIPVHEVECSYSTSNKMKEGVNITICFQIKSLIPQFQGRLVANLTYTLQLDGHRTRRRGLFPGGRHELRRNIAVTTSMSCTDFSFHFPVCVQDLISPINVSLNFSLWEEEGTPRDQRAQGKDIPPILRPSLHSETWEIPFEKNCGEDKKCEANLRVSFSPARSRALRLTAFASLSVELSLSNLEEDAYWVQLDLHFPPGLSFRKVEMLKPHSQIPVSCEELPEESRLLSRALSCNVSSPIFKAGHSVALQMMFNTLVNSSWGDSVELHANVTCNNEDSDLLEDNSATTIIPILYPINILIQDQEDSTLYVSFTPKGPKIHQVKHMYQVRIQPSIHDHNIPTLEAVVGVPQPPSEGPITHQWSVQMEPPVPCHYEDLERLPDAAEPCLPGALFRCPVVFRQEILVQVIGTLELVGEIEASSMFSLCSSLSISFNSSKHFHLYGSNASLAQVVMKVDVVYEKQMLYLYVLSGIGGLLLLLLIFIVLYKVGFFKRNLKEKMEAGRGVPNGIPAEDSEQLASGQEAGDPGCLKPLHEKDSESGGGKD

Sequence of ICAM-1 (P05362 28-532): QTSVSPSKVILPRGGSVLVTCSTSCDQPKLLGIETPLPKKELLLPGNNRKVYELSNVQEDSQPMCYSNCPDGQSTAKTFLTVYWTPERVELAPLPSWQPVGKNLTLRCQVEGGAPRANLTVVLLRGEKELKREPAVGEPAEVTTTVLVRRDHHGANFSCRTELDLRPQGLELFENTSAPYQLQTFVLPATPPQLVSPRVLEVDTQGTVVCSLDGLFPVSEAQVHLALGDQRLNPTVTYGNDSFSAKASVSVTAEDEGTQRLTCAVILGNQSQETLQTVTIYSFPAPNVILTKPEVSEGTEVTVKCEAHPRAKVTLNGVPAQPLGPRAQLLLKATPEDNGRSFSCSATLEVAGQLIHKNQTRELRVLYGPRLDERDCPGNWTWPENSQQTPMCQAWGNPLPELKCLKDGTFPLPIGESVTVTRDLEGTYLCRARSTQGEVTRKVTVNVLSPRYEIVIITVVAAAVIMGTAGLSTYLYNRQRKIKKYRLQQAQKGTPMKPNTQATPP

“ICAM-1 (from UniProt P05362 28-532) (ligand)” was tested, and the cytotoxicity of NK92-CD16 cells against NSCLC cells (51chromium-release assay) with the ICAM1-CD11a interaction blocked was 10%.
